Source: US8748176B2, “Generation of choroid plexus epithelial cells from human embryonic stem cells” (The Regents of the University of California, priority 2011, dated 2014)

B1: BMP4: Bone Morphogenetic Protein 4 (GeneID: 652), recombinant, commercially available (R&D Systems) (protein, UniProt P12644 293-408, looked up)
Bone morphogenetic protein 4: SPKHHSQRARKKNKNCRRHSLYVDFSDVGWNDWIVAPPGYQAFYCHGDCPFPLADHLNSTNHAIVQTLVNSVNSSIPKACCVPTELSAISMLYLDEYDKVVLKNYQEMVVEGCGCR

What was measured:
primary CPEC vesicles = assay: CPEC vesicle secretion assay with secretion inhibitors, primary CPECs; format: cell-based, mouse; details: 100 uM acetazolamide and 5 mM ouabain together, 24 hrs; regrew upon withdrawal
Excerpt: (§1) To assess functional activity, we adopted a well-established in vitro assay for CPEC vesicle formation and secretion (33, 34). As described previously using this assay, primary dissociated CPECs on Matrigel self-assembled into hollow vesicles that grew in diameter, collapsed after treatment with the secretion inhibitors acetazolamide and ouabain, and regrew upon inhibitor withdrawal (FIG. 5A-G). Indistinguishable vesicles formed from dissociated SFEBq aggregates treated with BMP4 (n=6/6 independent cultures), but not from controls (n=0/6; FIGS. 5H,I). Like the primary CPEC vesicles, the SFEBq-derived vesicles were Aqp1 positive (FIG. 5I, inset), grew (FIGS. 5J,K), collapsed after exposure to the secretion inhibitors (FIG. 5L), and recovered after inhibitor removal (FIG. 5M).
(§2) Primary CP cells or SFEBq-derived cells were cultured on Matrigel as previously described (33, 34). Briefly, Matrigel (BD Biosciences, San Jose, Calif.) was mixed 1:1 with DMEM (Invitrogen) and incubated for at least 30 min at 37 C. BMP4-treated SFEBq aggregates at 12 DIV were dissociated with TrypLE Express (Invitrogen) and plated at 500,000 to 600,000 cells/well onto Matrigel-coated 6-well plates in DMEM with 10% FBS, 2 mM L-glutamine, NEAA, and sodium pyruvate (Invitrogen). […]

SFEBq-derived vesicles = assay: CPEC vesicle secretion assay with secretion inhibitors, mESC-derived vesicles; format: cell-based, mouse; details: 100 uM acetazolamide and 5 mM ouabain together, 24 hrs; recovered after removal
Excerpt: as §1, §2

[1] = test system: mESC-derived NECs plated as adherent monolayers; assay: combined aggregation-monolayer system, CPEC markers by RT-qPCR and immunocytochemistry; format: cell-based, mouse
Experimental: In addition to direct BMP4 applications to SFEBq aggregates, we also dissociated SFEBq aggregates into single cells after 5DIV (i.e. after they had differentiated into NECs), plated them as adherent monolayers onto PDL-laminin-coated plates at 300,000-600,000 cells, then added BMP4 (0.5-50 ng/ml BMP4) for another 5 days (10DIV total). This combined aggregation-monolayer system allows all NECs to experience the same BMP4 concentration in culture. […] The optimal concentration of BMP4 is probably between 0.5 ng/ml-50 ng/ml BMP4 in this system.
(§3) These were performed as described (21, 26) on a StepOne Plus (Applied Biosystems, Carlsbad, Calif.) using 18S normalization and Excel for graphing and statistics (two-tailed t-tests assuming equal variance). All primers and amplicons were validated as described (21, 26). All studies represent n>2 biological replicates per condition, unless otherwise specified.

H9 hESC SFEBq aggregates = assay: BMP4 applied to H9 hESC SFEBq aggregates, CPEC marker expression; format: cell-based, human; details: BMP4 0-15 ng/ml, 18 to 24-DIV aggregates
Experimental: We also generated human CPECs by applying the SFEBq neural induction method to human ESCs (H9 line). H9 hESCs were optimized for aggregate size and assessed for NEC gene expression over time. 9000-cell SFEBq aggregates were optimal, and NEC expression plateaued by 18-24 DIV. BMP4 (0-15 ng/ml) was applied to 12-, 15-, 18-, 21-, and 24-DIV aggregates. […] Based on RT-qPCR studies, peak expression of NEC markers, but not radial glial markers, coincided with the 21 DIV aggregates.
(§4) 1) Neural rosette (NR) method. Neural induction with NR formation was adapted from Zhang et al. (35). Human ESC colonies were partially dissociated with 1 mg/ml dispase, then plated in suspension to form embryoid bodies (EBs) for 3 DIV. EBs were then transferred to suspension culture with neural induction media—DMEM/F12 (Invitrogen), N2 (Invitrogen), NEAA, heparin (2 ug/ml) and FGF2 (20 ng/ml)—for another two days. On 6 DIV, EBs were transferred to adherent PDL/laminin-coated plates with neural induction media, which was fully replaced every other day. On 16 DIV, media was fully replaced with neural induction media containing BMP4 (0.5-15 ng/ml), with full media replacement every other day. 2) Aggregate (SFEBq) method. […] The SFEBq media was changed every 3 days, with or without fresh BMP4, and the culture was analyzed after 1-2 weeks of BMP4 incubation, with greater CPEC differentiation detected at 2 weeks.

mESC-derived NECs = assay: BMP4 treatment of mESC-derived SFEBq aggregates, CPEC/NEC marker RT-qPCR; format: cell-based, mouse
Experimental: Significant and similar levels of CPEC gene induction were also seen with one-time BMP4 addition alone (data not shown). These findings indicate a relatively short and early critical period in culture for BMP4-mediated CPEC marker induction, which occurs at the expense of NEC markers.
as §3
Neural differentiation was adapted from Eiraku et al. (29). Briefly, mESCs were passaged for two hours onto gelatin-coated plates to reduce MEF load, dissociated to single cells using trypsin, then plated at varying concentrations onto ultra-low attachment U-bottom 96-well plates (Corning #7007, Lowell, Mass.) to form SFEBq aggregates. Differentiation media (29) was replaced initially, then every other day, with fresh media containing 0.5 to 50 ng/ml BMP4 (R&D Systems). Neural rosette (NR) cultures were based on the Elkabetz et al. method (30). […] For the combined SFEBq/NR method, we first generated SFEBq aggregates for 5 DIV, then transferred aggregates into adherent mNR conditions for another 2 DIV (7 DIV total).

[2] = test system: dissociated SFEBq aggregates; assay: in vitro assay for CPEC vesicle formation on Matrigel; format: cell-based, mouse; details: SFEBq aggregates treated with 50 ng/ml BMP4; controls n=0/6
Excerpt: as §1, §2

H1-derived NRs = assay: BMP4 addition to hESC-derived neural rosettes (NR method); format: cell-based, human; details: BMP4 0.5-15 ng/ml, evident by 7 DIV after addition
Excerpt: We then attempted to derive iCPECs from human ESCs using an analogous approach. To first generate NECs, we used the Zhang et al. method (35) to generate neural rosettes (NRs) (FIGS. 6A,B) with predominant forebrain character (30). […] Eventually, the hESC-derived vesicles transformed into flat epithelial sheets (FIG. 6D), and occasional multivesicular bodies also formed (FIG. 6E). […] H9 cultures yielded similar morphologic changes, although NR-to-vesicle transformations were less prominent.
as §4, with “day.” for “day. 2) Aggregate (SFEBq) method.”

Molecule | vesicle response to secretion inhibitors (primary CPEC vesicles) | vesicle response to secretion inhibitors (SFEBq-derived vesicles) | CPEC markers by RT-qPCR at 50 ng/ml ([1]; 50 ng/ml BMP4) | optimal BMP4 concentration for CPEC marker upregulation ([1]; 0.5-50 ng/ml BMP4 for 5 days, 10DIV total) [ng/mL] | CPEC markers Ttr, Otx2, and Lmx1a expression (H9 hESC SFEBq aggregates) | CPEC markers Ttr, Lmx1a, and Msx1 induction (mESC-derived NECs; 5-day aggregates, BMP4 5 or 50 ng/ml for 7 DIV) | CPEC markers Aqp1 and Cldn1 induction (mESC-derived NECs; 5-day aggregates, BMP4 concentration-dependent) | NEC markers Sox1 and Foxg1 expression (mESC-derived NECs; with increasing BMP4 concentration) | independent cultures forming vesicles on Matrigel [2] | morphologic transformation of neural rosettes (H1-derived NRs)
CC(=O)Nc1nnc(S(N)(=O)=O)s1 [acetazolamide] | collapsed | collapsed | – | – | – | – | – | – | – | –
C[C@@H]1O[C@@H](O[C@H]2C[C@@H](O)[C@]3(CO)[C@H]4[C@H](O)C[C@]5(C)[C@@H](C6=CC(=O)OC6)CC[C@]5(O)[C@@H]4CC[C@]3(O)C2)[C@H](O)[C@H](O)[C@H]1O [ouabain] | collapsed | collapsed | – | – | – | – | – | – | – | –
B1 | – | – | down-regulation of CPEC markers | 5 | upregulated | markedly induced | strongly induced | downregulated | 6/6 | transformed directly into expanding vesicular structures
